Tests used:
HeLa tumor xenografts = assay: Subcutaneous HeLa xenograft efficacy study; assay type: in vivo, SCID mice
Procedure: OVCAR5 (FIG. 26A and FIG. 26B), TOV-21 G (FIG. 26C and FIG. 26D), HPAC (FIG. 26E and FIG. 26F), and HeLa (FIG. 26G and FIG. 26H) cells were inoculated on day 0, and immunoconjugate treatments were given on day 6 and 13. PBS control animals were euthanized once tumor volumes exceeded 1000 mm^3. The conjugate was given at a dose of 600 μg/kg DM1, corresponding to an antibody concentration 27.7 mg/kg. Tumor volume (FIG. 26A, FIG. 26C, FIG. 26E, and FIG. 26G) and body weight (FIG. 26B, FIG. 26D, FIG. 26F, and FIG. 26H) of the mice were monitored during the course of the study.
muDS6-DM 1 activity was further tested on a panel of subcutaneous xenograft models (see FIG. 26). […] OVCAR5 cells and TOV-21 G are ovarian tumor cell lines; HPAC is a pancreatic tumor cell line; HeLa is a cervical tumor cell line. OVCAR5 and TOV-21G cells have low surface CA6 expression; HeLa cells have an intermediate level of surface CA6 expression; HPAC cells have a high CA6 density of surface expression. TOV-21G and HPAC cells are maytansine sensitive; OVCAR5 and HeLa cells are 2-7-fold less maytansine sensitive.
The 4 cell-lines were grown in vitro, collected, and 1×10^7 cells in a 100 μL of serum free medium were injected under the right shoulder of each mouse (6 mice per model) and allowed to grow for 6 days to an average tumor volume of 57.6±6.7 and 90.2±13.4 mm^3 for the test and control groups respectively of OVCAR5, 147.1±29.6 and 176.2±18.9 mm^3 for the test and control groups respectively of HPAC, 194.3±37.2 and 201.7±71.7 mm^3 for the test and control groups respectively of HeLa, and 96.6±22.8 and 155.6±13.4 mm^3 for the test and control groups respectively of TOV-21G, at which time drug treatment was initiated. For each model three control mice were treated with two weekly doses of PBS and three test mice were treated with two weekly doses of conjugate (600 μg/kg DM1) intravenously. Toxic responses were monitored daily during the treatment and tumor volumes and body weights were monitored throughout the study. […]

KB tumor xenografts = assay: Subcutaneous KB tumor xenograft efficacy study; assay type: in vivo, SCID mice
Procedure: Tumor cells were inoculated on day 0, and the first treatment was given on day 6. Immunoconjugate treatments continued daily for a total of 5 doses. PBS control animals were euthanized once tumor volumes exceeded 1500 mm^3. The conjugate was given at a dose of 150 or 225 μg/kg DM1, corresponding to antibody concentrations of 5.7 and 8.5 mg/kg respectively. The body weights (FIG. 25B) of the mice were monitored during the course of the study.
A subcutaneous model of the human cervical carcinoma cell-line, KB, was developed. KB cells were grown in vitro, collected, and 5×10^6 cells in a 100 μL of serum free medium were injected under the right shoulder of each mouse and allowed to grow for 6 days to an average tumor volume of 144±125 mm^3 at which time drug treatment was initiated. Mice were given either PBS, conjugate at 150 μg/kg DM1, or conjugate at 225 μg/kg DM1 (2 mice per group) intravenously every day for 5 days. Toxic responses were monitored daily during the treatment. Tumor volumes (FIG. 25A) and corresponding body weights (FIG. 25B) were monitored throughout the study.

KB cells = assay: Flow cytometry binding assay; set-up: species or system human; details: KB
Procedure: Cells were maintained in a 37° C., 5% CO2 humidified incubator.
Cells ([…]) were incubated, on ice for 3-4 h, with serially diluted concentrations of the DS6 antibody prepared in FACS buffer (2% goat serum, RPMI) into 96-well plates. The cells were spun down in a table top centrifuge at 1500 rpm for 5 min at 4° C. After removing the media, the wells were then refilled with 150 μl of FACS buffer. The wash step was then repeated. FITC-labeled goat anti-mouse IgG (Jackson Immunoresearch) was diluted 1:100 to FACS buffer and incubated with the cells for 1 h on ice. The plate was covered in foil to prevent photobleaching of the signal. After two washes, the cells were fixed with 1% formaldehyde and analyzed on a flow cytometer.
The affinity of the purified huIgG was compared with muDS6 by flow cytometry. In the first set of experiments direct binding to a CA6-expressing cell line, KB, was measured. […] To confirm that the huDS6 versions retain the affinity of muDS6, competitive binding experiments were conducted. The advantage of this format is that the same detection system is used for both murine and human antibodies; that is biotin-muDS6/streptavidin-DTAF.
The binding was conducted essentially as described for FIG. 20 except that KB cells were used rather than CaOv-3 cells.

HPAC cells = assay: Complement-dependent cytotoxicity (CDC) assay; assay type: cell-based; details: 5% human or rabbit serum
Procedure: (§1) To further test the inherent activity of naked muDS6, a complement-dependent cytotoxicity (CDC) assay using muDS6 was conducted. HPAC and ZR-75-1 cells (25000 cells/well) were plated in 96 well plates, in the presence of 5% human or rabbit serum and various dilutions of muDS6, in 200 μl of RHBP media (RPMI-1640, 0.1% BSA, 20 mM HEPES (pH 7.2-7.4), 100 U/ml penicillin and 100 ug/ml streptomycin). The cells were incubated for 2 h at 37° C. Then Alamar Blue (10% of final concentration) reagent (Biosource) was added to the supernatant. The cells were incubated for 5-24 hrs before measuring fluorescence.

ZR-75-1 cells = assay: Complement-dependent cytotoxicity (CDC) assay; assay type: cell-based; details: 5% human or rabbit serum
Procedure: as §1

[1] = 600 μg/kg DM1, two weekly doses
[2] = 150 μg/kg DM1 i.v. daily for 5 days

B1: DS6-DM1: muDS6 antibody modified with SPP and conjugated to the maytansinoid DM1 (conjugate)
VH: QAYLQQSGAELVRSGASVKMSCKASGYTFTSYNMHWVKQTPGQGLEWIGYIYPGNGATNYNQKFKGKATLTADPSSSTAYMQISSLTSEDSAVYFCARGDSVPFAYWGQGTLVTVSA
VL: QIVLTQSPAIMSASPGEKVTITCSAHSSVSFMHWFQQKPGTSPKLWIYSTSSLASGVPARFGGSGSGTSYSLTISRMEAEDAATYYCQQRSSFPLTFGAGTKLELKR
body weight (HeLa tumor xenografts; [1]): no weight loss was observed
tumor status at day 61 (HeLa tumor xenografts; [1]): tumor-free
tumor regression (HeLa tumor xenografts; 600 μg/kg DM1 i.v., two weekly doses): complete tumor regression in all mice
body weight (KB tumor xenografts; 150 μg/kg DM1): no weight loss
time to complete tumor regression after treatment initiation (KB tumor xenografts; [2]): 18 days
tumor delay (KB tumor xenografts; [2]): approximately 70 days
treatment outcome (KB tumor xenografts; 225 μg/kg DM1, no tumor recurrence at day 120): cures
time to complete tumor regression after treatment initiation (KB tumor xenografts; 225 μg/kg DM1 i.v. daily for 5 days): 14 days
visible signs of toxicity (KB tumor xenografts; during the 5-day treatment course, 150 and 225 μg/kg DM1): no visible signs of toxicity

B2: DS6: murine anti-CA6 monoclonal antibody DS6 (ATCC deposit number PTA-4449) (antibody, V domains shown)
VH: B1 VH
VL: B1 VL
MMF (average maximum relative mean fluorescence) (KB cells): 119.56
CDC mediated effect (HPAC cells; listed as Murine DS6): no effect
CDC mediated effect (HPAC cells; listed as muDS6): no CDC mediated effect
CDC mediated effect (ZR-75-1 cells; listed as Murine DS6): no effect
CDC mediated effect (ZR-75-1 cells; listed as muDS6): no CDC mediated effect

From patent US8987424B2, “CA6 antigen-specific cytotoxic conjugate and methods of using the same” (ImmunoGen, Inc., priority 2003, dated 2015)
